We go through one protein from ChEMBL document CHEMBL2311350, “Discovery of a novel phenylethyl benzamide glucokinase activator for the treatment of type 2 diabetes mellitus” (Bioorg Med Chem Lett, 2013).

The target of the data set is Glucokinase (Homo sapiens). The data set is described as follows: Induction of human pancreatic glucokinase activity assessed as maximal reaction rate at 5 mM glucose concentration.

B1: Hexokinase-4 (Homo sapiens), P35557 (protein)
chain: MLDDRARMEAAKKEKVEQILAEFQLQEEDLKKVMRRMQKEMDRGLRLETHEEASVKMLPTYVRSTPEGSEVGDFLSLDLGGTNFRVMLVKVGEGEEGQWSVKTKHQMYSIPEDAMTGTAEMLFDYISECISDFLDKHQMKHKKLPLGFTFSFPVRHEDIDKGILLNWTKGFKASGAEGNNVVGLLRDAIKRRGDFEMDVVAMVNDTVATMISCYYEDHQCEVGMIVGTGCNACYMEEMQNVELVEGDEGRMCVNTEWGAFGDSGELDEFLLEYDRLVDESSANPGQQLYEKLIGGKYMGELVRLVLLRLVDENLLFHGEASEQLRTRGAFETRFVSQVESDTGDRKQIYNILSTLGLRPSTTDCDIVRRACESVSTRAAHMCSAGLAGVINRMRESRSEDVMRITVGVDGSVYKLHPSFKERFHASVRRLTPSCEITFIESEEGSGRGAALVSAVACKKACMLGQ
Consider B1, for which the Vmax was 130%.
